From paper PMC9021610

Key:
[1] = target: nsp12 (RdRp catalytic subunit, Sf9);nsp7;nsp8 (SARS-CoV-2;SARS-CoV-2;SARS-CoV-2, UniProt P0DTD1;P0DTD1;P0DTD1 4393-5324;3860-3942;3943-4140, ||); test: EMSA; details: protein: recombinant;recombinant;recombinant; tags: 6xHis (Results: C-terminal; Methods: His tag after 5' ATG);6xHis (Results: C-terminal; legend: His6-nsp7);6xHis (Results: C-terminal; legend: His6-nsp8); copies: 1;1;2; label: 5'-biotin on strand 1 (S1); 5' overhang 10 nt (U10) on strand 2
[2] = target: nsp12 (RdRp catalytic subunit, Sf9) (SARS-CoV-2, UniProt P0DTD1 4393-5324); test: EMSA; nsp12 alone; details: protein: recombinant; tags: 6xHis (Results: C-terminal; Methods: His tag after 5' ATG); label: 5'-biotin on strand 1 (S1); 5' overhang 10 nt (U10) on strand 2

B1: S1*/S2 RNA primer/template (dsRNA)
RNA 1: GCUAUGUGAGAUUAAGAAUU
RNA 2: UUUUUUUUUUAAUUCUUAAUCUCACAUAGC
binding result [1]: binds
binding result [2]: binds
